Assay: yeast display, Sf9 membrane polyspecificity reagent, FACS + sequencing; frameworks hold sequencing errors
Method in brief: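 Sorting gates, low and high (top ~1%), were placed on anti-HA fluorescence to track expression and on streptavidin fluorescence to track reagent binding. A clone's polyreactivity label is taken from the gate it came out of. The reagent was 10% biotinylated, detergent-solubilized Sf9 membrane, applied for 1 hour at 4 °C to galactose-induced yeast display cells.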

Sequence	polyreactivity (PSR sort gate)
QVQLVESGGGLVQAGGSLRLSCAASGSIFVGNVMGWYRQAPGKERELVAAISRTGGTYYADSVKGRFTISRDNAKNTVYLQMNSLKPEDTAVYYCNKVSLRQSRMYYWGQGTQVTVSS	high polyreactivity
QVQLVESGGGLVQAGGSLRLSCAASGSIFVGYAMGWYRQAPGKERELVAAISWSGDSTYYADSVKGRFTISRDNAKNTVYLQMNSLTPEDTAVYYCAVDYAEIGPRPEVEYDYWGQGTQVTVSS	low polyreactivity
QVQLVESGGGLVQAGGSLRLSCAASGSIFVGYAMGWYRQAPGKERELVAAISWSGDSTYYADSVKGRFTISRDTAKNTVYLQMNSLKPEDTAVYYCAVDYAEIGPRREVEYDYWGQGTQVTVSS	low polyreactivity
QVQLVESGGGLVQAGGSLRLSCAASGSIFVGYGAMGWYRQAPGKERELVAAITSGTSTYYADSVKGRFTISRDNAKNTVYLQMNSLKPEDTAVYYCAARGFLKYVTEFDYWGQGTQVTVSS	low polyreactivity
QVQLVESGGGLVQAGGSLRLSCAASGSIFVGYTMGWYRQAPGKERELVAAITRRGGSTYYADSVKGRFTISRDNAKNTVYLQMNSLKPEDTAVYYCAAEVRRYVIVPYYYWGQGTQLTVSS	high polyreactivity
QVQLVESGGGLVQAGGSLRLSCAASGSIFVHNAMGWYRQAPGKERELVAAITWSGGSTYYADSVKGRFTISRDNAKNTVYLQMNSLKPEDTAVYYCAAEDVAAQWAYESPTSYWYYYIYEYWGQGTQVTVSS	low polyreactivity
QVQLVESGGGLVQAGGSLRLSCAASGSIFVHYAMGWSRQAPGKERELVAAITTSGGSTYYADSVKGRFTISRDNAKNTVYLQMNSLKPEDTAVYYCNARAVRYPFTGNYWAQGTQVTVSS	high polyreactivity
QVQLVESGGGLVQAGGSLRLSCAASGSIFVINPMGWYRQAPGNERELVAAISDSGTGTYYADSVKGRFTISRDNAKNTVYLQMNSLKPEDTAVYYCAADYYYRYRIYDYWGQGTQVTASS	low polyreactivity
QVQLVESGGGLVQAGGSLRLSCAASGSIFVKYTMGWYRQAPGKERELVAAISFRGGSTYYADSVKGRFTISRDNAKNTVYLQINSLKPEDTAVYYCNADGGWWPEYYWGQGTQVTVSS	low polyreactivity
QVQLVESGGGLVQAGGSLRLSCAASGSIFVNNAMGWYRQAPGKERELVAAISSRGGSTYYADSVKGRFTISRDNAKNTVYLQMNSLKPEDTAVYYCAAEYDGPYYSFYPEQRYYWGQGTQVTVSS	low polyreactivity
QVQLVESGGGLVQAGGSLRLSCAASGSIFVNNAMGWYRQAPGKERELVAAISSRSSRTFYADSVKGRFTISRDNAKNTVYLQMNSLKPEDTAVYYCAKPGYLRPSRYDYWGQGTQVTVSS	high polyreactivity
QVQLVESGGGLVQAGGSLRLSCAASGSIFVPNAMGWYRQAPGKEREFVAAITRSGGRTYYADSVKGRFTISRDNAKNTVYLQMNSLKPEDTAVYYCAAPYGTYAYDYWGQGTQVTVSS	high polyreactivity
QVQLVESGGGLVQAGGSLRLSCAASGSIFVPYAMGWYRPAPGKERELVAAISWSGGSTYYADSVKGRFTISRDNAKNTVYLHMNSLKPEDTAVYYCAVRFRSYTSYYWIDYEYWGQGTQVTVSS	high polyreactivity
QVQLVESGGGLVQAGGSLRLSCAASGSIFVPYAMGWYRQAPGKERELVAAISRRGGRTNYADSVKGRFTISRDNAKNTVYLQMNSLKPEDTAVYYCAKYPIYYGLTRYGYWGHGTQVTVSS	high polyreactivity
QVQLVESGGGLVQAGGSLRLSCAASGSIFVPYAMGWYRQAPGKERELVAAISSRGGRTYYADSVKGRFTISRDNAKNTVYLQMNSLKPEDNAVYYCNKTAGSHIPRLEYWGQGTQVTVSS	low polyreactivity
QVQLVESGGGLVQAGGSLRLSCAASGSIFVPYAMGWYRQAPGKERELVAAITYSDGSTYYADSVKGRFTISRDNEKNTVYLQMNSLKPEDTAVYYCATYPQYYFRYDYWGQGTQVTVSS	high polyreactivity
QVQLVESGGGLVQAGGSLRLSCAASGSIFVPYTMGWYRQAPGKERELVAAINSSDDSTFYADSVKGRFTISRDNAKNTVYLKMYSLKPEDTAVYYCNATGYARWYTGDYWGQGTQVTVSS	low polyreactivity
QVQLVESGGGLVQAGGSLRLSCAASGSIFVQNAMGWYRQAPGKETELVAVINSGDSTNYADSVKGRFTISRDNAKNTVYLQMNSLKPEDTEVYYCAVDDVSYYYLRAYNYELSWYGSGLDYWGQGTQVTVSS	low polyreactivity
QVQLVESGGGLVQAGGSLRLSCAASGSIFVQYAMGWYRQAPGKERELVAGITISGGRTYYADSVKGRFTISRDNAKNTVYLLMNSLKPEDTAVYYSNADVTRASSRYNSWGHGTQVTVSS	low polyreactivity
QVQLVESGGGLVQAGGSLRLSCAASGSIFVQYAMGWYRQAPGKERELVAGITISGGRTYYADSVKGRFTISRDNAKNTVYLQMNSLKPEDTAVYYSNADVTRASSRYNSWGQGTQVTVSS	low polyreactivity

Sequence	polyreactivity (PSR sort gate)
QVQLVESGGGLVQAGGSLRLSCAASGSIFVQYAMGWYRQAPGNERELVAAISNRGGSTYYADSVKGRFTISRDNAKNTVYLQMNSLKPEDTAVYYCAARKYWGYGTRYYYWGQGTQVTVSS	high polyreactivity
QVQLVESGGGLVQAGGSLRLSCAASGSIFVRYAMGWYRQAPGKEREFVAARTGNTDYADSVKGRFTISRDNAKNTVYLQMNSLKPEDTAVYYCARRPRSGTVSTPYYSLDYWGQGTQVTVSS	low polyreactivity
QVQLVESGGGLVQAGGSLRLSCAASGSIFVSNAMGWYRQAPGKERELVAAITARDVSTYYADSVKGRFTISRDNAKNTVYLQMNSLKPEDTAVYYCAGNSSTYPSDDSYDYWGQGTQVTVSS	low polyreactivity
QVQLVESGGGLVQAGGSLRLSCAASGSIFVSYAMGWYRQAPGKERELVAAITWSGGSTYYADSVKGRFTISRDNAKNTVYLQMKSLKPEDTAVYYCAADEPYPTAYEYWGQGTQVTVSS	low polyreactivity
QVQLVESGGGLVQAGGSLRLSCAASGSIFVTNAMGWYRPAPGKERELVAAIRWSGDSTYYADSVKGRFTISRDNAKNTVFLQMNSLKPEDTAVYYCAAESFRYIRLNYKYGDYYWGQGTQVTVSS	high polyreactivity
QVQLVESGGGLVQAGGSLRLSCAASGSIFVTNAMGWYRQEPGKERELVAAISVSGGSTFYADSVKGRFTISRDNAKNTVYLQMNSLKPEDTAVYYCNTVRSPPGHDYWGQGTQVTVSS	low polyreactivity
QVQLVESGGGLVQAGGSLRLSCAASGSIFVTNGMGWYRQAPGKERELVAVISWGGGNTYYADSVKGRFTISRDNAKNTVYLQMNSLKPEDTAVYYCAVDIWGGEGYDSWGQGTQVTVSS	low polyreactivity
QVQLVESGGGLVQAGGSLRLSCAASGSIFVTNTMGWYRQAPGKERELVAAITYSGGSTYYADSVKGRFTISRDNAKNNVYLQMNSLKPEDTAVYYCAARRARYHVEYYYWGQGTQVTVSS	high polyreactivity
QVQLVESGGGLVQAGGSLRLSCAASGSIFVTYAMGWYRQAPGKERELVARITSGGSTYYADSVKGRFTISRDNAKNTVYLQMNRQKPEDTAVYYCAARRWLRYDLDYWGQGTQVTVSS	low polyreactivity
QVQLVESGGGLVQAGGSLRLSCAASGSIFVVNAMGWYRPAPGKERELVAAISDSGDRTYYADSVKGRFTISRDNAKNTVYLLMNSLKPEDTAVYYCNTRYSPGYQGTEVDYWGQGTQVTVSS	low polyreactivity
QVQLVESGGGLVQAGGSLRLSCAASGSIFVVNAMGWYRQAPGKERELVAAISDSGDRTYYADSVKGRFTISRDNAKNTVYLQMNSLKPEDTAVYYCAADSIQTTAIYDYWGQGTQVTVSS	low polyreactivity
QVQLVESGGGLVQAGGSLRLSCAASGSIFVVNARGWYRQAPGKERELVAAITKNGGRTYYADSVKGRFTISRDNAKNTVYLQMNSLKPEDTAVYYCNTVKGHGGYYGYDYWGQGTQVSVSS	high polyreactivity
QVQLVESGGGLVQAGGSLRLSCAASGSIFVWNDMGWYRQAPGKERELVASIRSGVSTYYADSVKGRFTISRDNAKNTVYLQMNSLKPEDTAVYYCAKKGPIHYIYDSWGQGTQVTVSS	low polyreactivity
QVQLVESGGGLVQAGGSLRLSCAASGSIFVYNAKGWYRQAPGKERELVAAISSSGSSTYYADSVKGRFTISRDNAKNTFYLQMNSLKPEDTAVYYCAADPARYGYWNSYDYWGQGTQVTVSS	high polyreactivity
QVQLVESGGGLVQAGGSLRLSCAASGSIFVYNAMGWYRQAPGKEREFVAGITFIGGSTYYADSVKGRFTISRDNAKNTVYLKMNSLKPEDTAVYYCNADVAPGIFYGYDSWGQGSQVTVSS	low polyreactivity
QVQLVESGGGLVQAGGSLRLSCAASGSIFVYNAMGWYRQAPGKERELVAAIDTVGSTNYADSVKGRFTISRDNAKNTVYLQMNSLKPEDTAVYYCAVVTPYWSFYEQVIPSNYWGQGTQVTVSS	low polyreactivity
QVQLVESGGGLVQAGGSLRLSCAASGSIFVYNDMGWYRQAPGKERELVAGIDWSGDRTYADSVKGRFTISRDNAKNTVYLQLNSLKPEDTAVYYCNADDWRWDEIIPYAVDYWGQGTQVTVSS	low polyreactivity
QVQLVESGGGLVQAGGSLRLSCAASGSIFVYNDMGWYRQAPGKERELVAGIDWSGDRTYADSVKGRFTISRDNAKNTVYLQMNSLKPEDTAVYYCNADEWRWDEIIPYAVDYWGQGTQVTVSS	low polyreactivity
QVQLVESGGGLVQAGGSLRLSCAASGSIFVYYAMGWYRQAPGKERELVASISRGGTSTYYADSVKGRFTISRDNAKNTVYLQMNSLKPEDTAVYYCAAQPYRTGTYDYWGQGTQVTVSS	low polyreactivity
QVQLVESGGGLVQAGGSLRLSCAASGSIFVYYAMGWYRQAPGNERELVAAINNGGSTTYADSVKGRFTISRDNAKNTVYLQMNSLKPEDTAVYYCAADLEPRTNAPGLPTPDGYYWGQGTQVTVSS	low polyreactivity
